Legend:
[1] = target: TRF2 (endogenous in HeLa cells) (human (endogenous in HeLa)) (UniProt Q15554); assay: proximity ligation; Duolink in situ PLA in fixed HeLa cells with anti-TRF2 and anti-histone H3 antibodies; cells scored for 10 or more signals in nuclei
[2] = target: FKBP fused to the N terminus of TRF2 ΔB (FKBP-TRF2 ΔB), Myc-tagged

UniProt Q15554, sequence (Q15554 whole entry, the tested form may be a part): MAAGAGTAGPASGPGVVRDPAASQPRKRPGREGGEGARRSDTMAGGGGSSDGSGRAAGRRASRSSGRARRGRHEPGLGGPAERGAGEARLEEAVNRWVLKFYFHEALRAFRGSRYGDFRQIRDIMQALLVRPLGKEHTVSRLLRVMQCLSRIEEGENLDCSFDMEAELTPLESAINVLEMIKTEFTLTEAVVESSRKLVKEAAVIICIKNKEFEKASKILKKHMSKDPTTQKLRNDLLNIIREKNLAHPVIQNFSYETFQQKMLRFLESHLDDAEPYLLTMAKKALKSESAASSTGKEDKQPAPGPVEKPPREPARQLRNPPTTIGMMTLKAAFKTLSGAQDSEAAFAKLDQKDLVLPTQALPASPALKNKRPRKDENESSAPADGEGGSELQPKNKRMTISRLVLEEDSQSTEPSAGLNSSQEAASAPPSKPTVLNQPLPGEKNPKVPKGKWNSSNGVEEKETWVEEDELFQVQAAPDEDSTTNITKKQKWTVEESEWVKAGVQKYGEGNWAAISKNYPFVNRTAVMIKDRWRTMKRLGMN

Row | percent of cells with more than 10 positive Duolink signals [1] | generation of t-circles in FKBP-TRF2 ΔB-complemented MEFs expressing H2B-FRB, with A/C dimerizer for 48 h [2] | Substance
1 | 26 % of cells |  | histone H3 (HeLa cells) (from UniProt P68431 1-136) (natural protein)
2 |  | 50% | FRB fused to the C terminus of histone H2B (H2B-FRB), HA-tagged
